Blank lines part the entries; values can stand above or below the binder they belong to.
Legend:
[1] = molecular target: Antp^I32A−H36A-hTBP pair (VC-Antp HD helix 2 mutant with VN-TBP) as acceptor in BiFC-FRET (Drosophila | human) (UniProt P20226)
[2] = molecular target: Antp^AAAA-hTBP pair (VC-Antp YPWM mutant with VN-TBP) as acceptor in BiFC-FRET (Drosophila | human) (UniProt P02833)
[3] = molecular target: AntpΔN-hTBP pair (VC-AntpΔN with VN-TBP) as acceptor in BiFC-FRET (Drosophila | human) (UniProt P02833)
Chain of AntpΔN-hTBP pair (VC-AntpΔN with VN-TBP) as acceptor in BiFC-FRET (Drosophila | human) (P02833 270-378, stated change not applied, chain 1 of 2): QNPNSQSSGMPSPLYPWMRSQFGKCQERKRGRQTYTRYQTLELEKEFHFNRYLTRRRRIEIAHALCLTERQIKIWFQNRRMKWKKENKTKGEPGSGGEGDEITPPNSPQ
Chain of AntpΔN-hTBP pair (VC-AntpΔN with VN-TBP) as acceptor in BiFC-FRET (Drosophila | human) (P20226 whole entry, stated change not applied, chain 2 of 2, further chain, the tested form may be a part): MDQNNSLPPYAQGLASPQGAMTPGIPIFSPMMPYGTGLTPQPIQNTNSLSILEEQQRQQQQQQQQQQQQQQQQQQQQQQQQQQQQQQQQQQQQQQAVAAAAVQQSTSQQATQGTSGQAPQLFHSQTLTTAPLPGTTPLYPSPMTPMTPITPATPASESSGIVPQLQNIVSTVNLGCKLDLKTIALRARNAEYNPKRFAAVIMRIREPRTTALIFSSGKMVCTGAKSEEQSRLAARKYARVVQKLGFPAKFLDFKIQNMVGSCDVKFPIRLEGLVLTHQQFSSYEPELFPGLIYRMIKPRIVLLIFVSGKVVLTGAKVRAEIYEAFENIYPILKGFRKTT

[4] = molecular target: Antp^AAAA, Antp with the YPWM motif substituted by alanines, fused to the C-terminal fragment of Venus (Drosophila), P02833
Chain of Antp^AAAA, Antp with the YPWM motif substituted by alanines, fused to the C-terminal fragment of Venus (Drosophila), P02833 (P02833 whole entry, the tested form may be a part): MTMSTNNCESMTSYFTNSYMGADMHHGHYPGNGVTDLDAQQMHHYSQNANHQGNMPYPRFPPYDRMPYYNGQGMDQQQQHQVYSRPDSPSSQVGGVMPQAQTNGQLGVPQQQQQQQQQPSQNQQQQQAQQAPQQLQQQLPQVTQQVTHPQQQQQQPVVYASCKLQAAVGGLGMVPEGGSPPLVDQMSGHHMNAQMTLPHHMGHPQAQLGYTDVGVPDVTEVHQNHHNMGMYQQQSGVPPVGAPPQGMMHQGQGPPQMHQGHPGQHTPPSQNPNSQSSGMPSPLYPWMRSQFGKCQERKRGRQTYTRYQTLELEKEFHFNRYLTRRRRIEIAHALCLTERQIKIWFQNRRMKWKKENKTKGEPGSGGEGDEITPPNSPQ

Chain of Antp^AAAA-hTBP pair (VC-Antp YPWM mutant with VN-TBP) as acceptor in BiFC-FRET (Drosophila | human) (P02833 whole entry, stated change not applied, chain 1 of 2): as the sequence (P02833 whole entry, the tested form may be a part) above
Chain of Antp^AAAA-hTBP pair (VC-Antp YPWM mutant with VN-TBP) as acceptor in BiFC-FRET (Drosophila | human) (P20226 whole entry, stated change not applied, chain 2 of 2, further chain): as the sequence (P20226 whole entry, stated change not applied, chain 2 of 2, further chain, the tested form may be a part) above
Chain of Antp^I32A−H36A-hTBP pair (VC-Antp HD helix 2 mutant with VN-TBP) as acceptor in BiFC-FRET (Drosophila | human) (P20226 whole entry, looked up, stated change not applied, tested part not stated): as the sequence (P20226 whole entry, stated change not applied, chain 2 of 2, further chain, the tested form may be a part) above

- transactivation on pGLH11 of Antp^I32A−H36A with TBP and TFIIEβ, percent of Antp alone (Fig. 5B) [1]: 72%
B1: TFIIEβ fused to ECFP (natural protein)
chain: MDPALLREREAFKKRAMATPTVEKKSKPDRPAPPPPSDDSRRKMRPPNAPRLDATTYKTMSGSSQYRFGVLAKIVKFMRTRHQDGDDHPLTIDEILDETNQLDIGQSVKNWLASEALHNNPKVEASPCGTKFSFKPVYKIKDGKTLMRLLKQHDLKGLGGILLDDVQESLPHCEKVLKNRSAEILFVVRPIDKKKILFYNDRTANFSVDDEFQKLWRSATVDAMDDAKIDEYLEKQGIRSMQDHGLKKAIPKRKKAANKKRQFKKPRDNEHLADVLEVYEDNTLTLKGVNPT

- transactivation on pGLH11 of Antp^AAAA with TBP and Exd, percent of Antp alone (Fig. 5C) [2]: 70%
- transactivation on pGLH11 of AntpΔN with TBP and Exd, percent of Antp alone (Fig. 5C) [3]: 65%
B2: Extradenticle (Exd) (144–376) fused to ECFP (domain or fragment)
chain: DGADNAIEHSDYRAKLAQIRQIYHQELEKYEQACNEFTTHVMNLLREQSRTRPITPKEIERMVQIIHKKFSSIQMQLKQSTCEAVMILRSRFLDARRKRRNFSKQASEILNEYFYSHLSNPYPSEEAKEELARKCGITVSQVSNWFGNKRIRYKKNIGKAQEEANLYAAKKAAGASPYSMAGPPSGTTTPMMSPAPPQDSMGYPMGSGGYDQQQPYDNSMGGYDPNLHQDLSP

- transactivation on pGLH11 of Antp^AAAA with Exd, percent of Antp alone (Fig. 5C) [4]: 97%
B3: Extradenticle (Exd) (144–376) fused to ECFP, P40427 144-376 (domain or fragment)
chain: DGADNAIEHSDYRAKLAQIRQIYHQELEKYEQACNEFTTHVMNLLREQSRTRPITPKEIERMVQIIHKKFSSIQMQLKQSTCEAVMILRSRFLDARRKRRNFSKQASEILNEYFYSHLSNPYPSEEAKEELARKCGITVSQVSNWFGNKRIRYKKNIGKAQEEANLYAAKKAAGASPYSMAGPPSGTTTPMMSPAPPQDSMGYPMGSGGYDQQQPYDNSMGGYDPNLHQDLSP
